# Literature values as cited in publication PMC2917178.
# Target: Lys66 (UniProt position 148, FTKKMKENAKK)
# Settings: native (folded) state
substance,measurement,value
Staphylococcal nuclease V66K variant (Staphylococcus aureus; V66K),pKa,6.4
